In PMC6962426:

Molecular target: histidine-tagged FcγRIIIa-158V receptor
Assay: Fcγ receptor binding assay
Details: read at the highest antibody concentration, x about 0.0014 (axis unit printed as µg/mL); parent: est. 260; read off a plot

Row | response [RU] | Substance
1 | 55 | IgG1-B (parent) N325D
2 | 17 | IgG1-B (parent) N325Q
